Measured values: patent US20260327324 (published 2026)
Positions count from the first letter of the chain named. In names and notes the source's numbering stands.

Assays:
Assay in all cases: SPR
ROR1 = ROR1 (UniProt Q01973)
MSLN = target: T1, MSLN (UniProt Q13421)
T1 chain: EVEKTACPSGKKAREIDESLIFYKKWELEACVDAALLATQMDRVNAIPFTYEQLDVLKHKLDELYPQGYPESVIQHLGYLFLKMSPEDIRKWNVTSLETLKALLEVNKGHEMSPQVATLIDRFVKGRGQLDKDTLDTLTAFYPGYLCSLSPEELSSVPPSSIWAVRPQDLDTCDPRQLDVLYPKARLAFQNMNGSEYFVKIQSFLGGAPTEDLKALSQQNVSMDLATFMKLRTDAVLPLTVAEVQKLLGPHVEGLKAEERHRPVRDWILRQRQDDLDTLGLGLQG

HSA = HSA (human, UniProt P02768)
PD-L1 [1] = target: PD-L1 (UniProt Q9NZQ7)
PD-L1, sequence (Q9NZQ7 19-238): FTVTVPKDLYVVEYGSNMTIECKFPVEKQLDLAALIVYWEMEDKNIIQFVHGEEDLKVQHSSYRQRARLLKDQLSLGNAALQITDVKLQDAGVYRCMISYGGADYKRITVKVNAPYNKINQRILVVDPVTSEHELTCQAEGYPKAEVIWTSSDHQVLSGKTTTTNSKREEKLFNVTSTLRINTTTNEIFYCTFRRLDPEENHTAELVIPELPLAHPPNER

PD-L1 [2] = target: PD-L1 (UniProt Q9NZQ7); remark: listed apart in the source
CD3e = target: T2, CD3e (UniProt P07766)
T2 chain: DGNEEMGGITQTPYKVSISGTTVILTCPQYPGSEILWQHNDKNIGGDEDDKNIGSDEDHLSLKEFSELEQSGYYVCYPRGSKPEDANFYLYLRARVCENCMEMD

ROR1, sequence (Q01973 30-403): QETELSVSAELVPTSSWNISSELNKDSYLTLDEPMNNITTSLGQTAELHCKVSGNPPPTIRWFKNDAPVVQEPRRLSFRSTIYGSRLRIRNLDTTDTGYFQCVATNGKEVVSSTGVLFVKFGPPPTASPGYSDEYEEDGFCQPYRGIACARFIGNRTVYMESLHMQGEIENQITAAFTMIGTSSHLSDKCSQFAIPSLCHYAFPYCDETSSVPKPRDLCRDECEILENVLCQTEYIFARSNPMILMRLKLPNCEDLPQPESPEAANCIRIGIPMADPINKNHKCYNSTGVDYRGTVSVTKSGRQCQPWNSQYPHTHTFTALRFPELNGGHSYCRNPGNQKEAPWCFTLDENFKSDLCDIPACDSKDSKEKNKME

B1: PRO4139 (55-38-D07-sc09 A67G_S68G) (antibody)
chain: DVQMTQSPSSLSASVGDRVTITCRASENIYSGLAWYQQKPGKPPKLLIYRGGTLASGVSSRFSGSGSGTDFTLTISSLQPEDFATYYCQGGYYSSSSTYIAFGTGTKVTVLGGGGGSGGGGSGGGGSGGGGSQSVVESGGGLVQPGGSLRLSCAVSGFDLSSYAVSWVRQAPGKGLEWIGIIYPRANTYYASWAKGRFTISKDNSKNTVYLQMNSLRAEDSAVYFCARDRYDSGAYLYTTYFNLWGQGTLVKVSS
Kd (ROR1): 0.212 nM

B2: PRO4135 (55-38-D07-sc09) (antibody)
chain: B1 chain with G51A, G52S
Kd (ROR1): 0.122 nM

B3: PRO4143 (55-38-D07-sc09 G51C A67G_S68G_T141C) (antibody)
chain: B1 chain with T104C, G175C
Kd (ROR1): 0.631 nM

B4: PRO3733 (54-32-A07-sc06 G51C_T141C A67G_S68G) (antibody)
chain: ALQMTQSPSSLSARVGDRVTIKCQASQSISNYLAWYQQKPGKPPKFLIYDGGDLASGVPSRFSGSGSGRDFTLTISSLQPEDFATYYCQQVYDSNNVENVFGCGTKVTVLGGGGGSGGGGSGGGGSGGGGSQSQLVESGGGLVQPGGSLRLSCAVSGFSLSSYAMGWVRQAPGKCLEYIGYISKIGTTYYASWAKGRFTISKDNSKNTVYLQMNSLRAEDTAVYFCARGSSSGGYLDDGFDPWGQGTLVTVSS
Kd (MSLN): 1.58 nM

B5: PRO2309 (54-32-A07-sc06 G51C_T141C) (antibody)
chain: B4 chain with G51A, G52S
Kd (MSLN): 0.561 nM

B6: PRO4112 (19-04-A10-sc11) (antibody)
chain: AFQLTQSPSSLSASVGDRVTITCQASESINSRLAWYQQKPGKPPKLLIYDASDLTSGVPSRFSGRGSGTDFTLTISSLQPEDFATYYCQGYGGSSTTTFGCGTKVTVLGGGGGSGGGGSGGGGSGGGGSQQLVESGGGLVQPGGSLRLSCAASGFSLSSYAMNWVRQAPGKCLEWIGHINAGDIAYYATWAKGRFTISKDNSKNTVYLQMNNLRAEDSAVYFCARGAGGFSTGPFKLWGQGTLVKVSS
Kd (HSA): 0.174 nM

B7: PRO4113 (19-04-A10-sc12) (antibody)
chain: B6 chain with Q131S, L132V, N212S
Kd (HSA): 0.0901 nM

B8: PRO3477 (37-20-B03-sc09.1 human consensus LCDR2) (antibody)
chain: DIQMTQSPASLSASVGDRVTITCQASQSIGTYLAWYQQKPGKPPKLLIYAASSLQSGVPSRFSGSGSGTDFTLTISSLQPEDFATYYCQSNFYSDSTTIGPNAFGTGTKVTVLGGGGGSGGGGSGGGGSGGGGSEVQLVESGGGLVQPGGSLRLSCAASGFSFNSDYWIYWVRQAPGKGLEWIASIYGGSSGNTQYASWAQGRFTISRDNSKNTVYLQMNSLRAEDTAVYFCARGYVDYGGATDLWGQGTLVTVSS
binding result (PD-L1 [1]): no binding

B9: PRO3478 (37-20-B03-sc09.1 Y42S human consensus LCDR2) (antibody)
chain: B8 chain with Y170S
binding result (PD-L1 [1]): no binding

B10: PRO3732 (54-21-H03-sc01 A67G_S68G) (antibody)
chain: DIQMTQSPSSLSASVGDRVTITCQASESIYSSLAWYQQKPGKAPKLLIYLGGTLASGVPSRFSGSGSGTDFTLTISSLQPEDFATYYCQSTDYTTSTHRNSFGTGTKVTVLGGGGGSGGGGSGGGGSGGGGSEVQLVESGGGLVQPGGSLRLSCAASGFSFSTTYYMCWVRQAPGKGLEWIGCTNTASSVRTYYATWAKGRFTISRDNSKNTVYLQMNSLRAEDTAVYYCARDMGFADYALNLWGQGTLVTVSS
Kd (MSLN): 0.172 nM

B11: PRO1922 (54-21-H03-sc01) (antibody)
chain: B10 chain with G51A, G52S
Kd (MSLN): 0.151 nM

B12: PRO3735 (55-38-D07-sc02 A67G_S68G) (antibody)
chain: DVQMTQSPSSLSASVGDRVTITCRASENIYSGLAWYQQKPGKPPKLLIYRGGTLASGVSSRFSGSGSGTDFTLTISSLQPEDFATYYCQGGYYSSSSTYIAFGTGTKVTVLGGGGGSGGGGSGGGGSGGGGSQSQVVESGGGLVQPGGSLRLSCAVSGFDLSSYAVSWVRQAPGKGLEWIGIIYPRANTYYASWAKGRFTISKDNSKNTVYLQMNSLRAEDTAVYFCARDRYDSGAYLYTTYFNLWGQGTLVTVSS
Kd (ROR1): 0.336 nM

B13: PRO1434 (33-03-G02 Q108A_G109A) (antibody)
chain: DIQMTQSPSSLSASVGDRVTITCQASQSINDYLAWYQQKPGKAPKLLIYKASTLASGVPSRFSGSGSGTDFTLTISSLQPEDFATYYCQAAYIITDIDNVFGTGTKVTVLGGGGGSGGGGSGGGGSGGGGSQVQLQESGPGLVKPSETLSLTCKVSGFSFSSGYDMCWIRQPPGKGLEWIGCVVAGSVDITYYASWAKGRVTISVDSSKNQFSLKLSSVTAADTAVYYCARKDAYSDAFNLWGQGTLVTVSS
Kd (PD-L1 [2]): 491 nM

B14: PRO3725 (33-03-G02 Q108A_G109A A67G_F68G) (antibody)
chain: B13 chain with A51G, S52G
Kd (PD-L1 [2]): 491 nM

B15: PRO3718 (28-21-D09-sc04 A67G_S68G) (antibody)
chain: DIQMTQSPSSLSASVGDRVTITCQSSQSVFSNNYLAWFQQKPGQSPKRLIYSGGTLASGVPSRFSGSGSGTDFTLTISSLQPEDFATYYCLGSYACSSADCYVFGTGTKVTVLGGGGGSGGGGSGGGGSGGGGSEVQLVESGGGLVQPGGSLRLSCAASGFSLSSYDMSWVRQAPGKGLAWIGASYASGPTYYASWAKGRFTISRDNSKNTVYLQMNSLRAEDTATYFCARGGWTGTSHSNIWGQGTLVTVSS
Kd (CD3e): 5.2 nM

B16: PRO2781 (28-21-D09-sc04) (antibody)
chain: B15 chain with G53A, G54S
Kd (CD3e): 5.88 nM

B17: PRO2155 (19-04-A10-sc02) (antibody)
chain: AFELTQSPSSLSASVGDRVTITCQASESINSRLAWYQQKPGQPPKLLIYDASDLTSGVPSRFSGSGSGTDFTLTISSLQPEDFATYYCQGYGGSSTTTFGGGTKLTVLGGGGGSGGGGSGGGGSGGGGSEVQLVESGGGLVQPGGSLRLSCAASGFSLSSYAMNWVRQAPGKGLEWIGHINAGDIAYYATWAKGRFTISRDNSKNTVYLQMNSLRAEDTAVYFCARGAGGFSTGPFKLWGQGTLVTVSS
Kd (HSA): 2.62 nM

B18: PRO4125 (37-20-B03 sc17 A67G_F68G) (antibody)
chain: DIQMTQSPSSLSASVGDRVTITCQASQSIGTYLAWYQQKPGKPPKLLIYRGGILASGVPSRFSGSGSGTDFTLTISSLQPEDFATYYCQSNFYSDSTTIGPNAFGTGTKVTVLGGGGGSGGGGSGGGGSGGGGSQSLVESGGGLVQPGGSLRLSCAASGFSFNSDYWISWVRQAPGKGLEWIASIYGGSSGNTQYASWAQGRFTISKDNSKNTVYLQMNSLRAEDTAVYFCARGYVDYGGATDLWGQGTLVTVSS
Kd (PD-L1 [2]): 0.196 nM

B19: PRO2062 (55-39-G02-sc02) (antibody)
chain: AQQLTQSPSSLSASVGDRVTITCQASQNVWNNNYLSWFQQKPGKPPKLLIVTASTLASGVSSRFSGSGSGTDFTLTISSLQPEDFATYYCAGGFSGEIRAFGTGTKVTVLGGGGGSGGGGSGGGGSGGGGSQSQLVESGGGLVQPGGSLRLSCAVSGLSLSRNAMSWVRQAPGKGLEWIGIILTSGSTYYASWAKGRFTISKDNSKNTVYLQMNSLRAEDTAVYFCVRGIASSSLKSFWGQGTLVTVSS
Kd (ROR1): 0.108 nM

B20: PRO3734 (55-39-G02-sc02 A67G_S68G) (antibody)
chain: B19 chain with A53G, S54G
Kd (ROR1): 0.12 nM

B21: PRO1347 (37-20-B03 sc09-IF) (antibody)
chain: IQMTQSPASLSASVGDRVTITCQASQSIGTYLAWYQQKPGKPPKLLIYRAFILASGVPSRFSGSGSGTDFTLTISSLQPEDFATYYCQSNFYSDSTTIGPNAFGTGTKVTVLGGGGGSGGGGSGGGGSGGGGSEVQLVESGGGLVQPGGSLRLSCAASGFSFNSDYWIYWVRQAPGKGLEWIACIYGGSSGNTQYASWAQGRFTISRDNSKNTVYLQMNSLRAEDTAVYFCARGYVDYGGATDLWGQGTLVTVSS
Kd (PD-L1 [2]): 0.0109 nM

B22: PRO2060 (55-38-D07-sc02) (antibody)
chain: VQMTQSPSSLSASVGDRVTITCRASENIYSGLAWYQQKPGKPPKLLIYRASTLASGVSSRFSGSGSGTDFTLTISSLQPEDFATYYCQGGYYSSSSTYIAFGTGTKVTVLGGGGGSGGGGSGGGGSGGGGSQSQVVESGGGLVQPGGSLRLSCAVSGFDLSSYAVSWVRQAPGKGLEWIGIIYPRANTYYASWAKGRFTISKDNSKNTVYLQMNSLRAEDTAVYFCARDRYDSGAYLYTTYFNLWGQGTLVTVSS
Kd (ROR1): 0.119 nM
